The values below come from the RNAGym collection of RNA variant scans (doi:10.7554/elife.90254).

B1: LINE1-full (parent)
chain: UACGUAGGUGGUUUUCCCCUGAUAGUGCUAAGGGGGCCUGGAAGUUUGGACUGGGCAGAGCUCAACACAGCGUGGCAAAGUGGCUGUGGCUAGACUGCCUCUCUGGAUUCCUCGUCACUCAGCAGGGCAUCUCUGAGAGAAAUGCC

Variants of B1 are the subject of this series. Nature of the series: self-cleavage, relative activity (ratio to wild type); higher = more cleavage; in vitro, sequencing; the parent is a self-cleaving ribozyme.
In the case of UACGUAUGUGCUUUUCCCCUGAUAGUGCUAAGGGGGCCUGGAAGUUUGGACUGGGCAGAGCUCAACACAGCGUGGCAAAGUGGCUGUGGCUAGACUGCCUCUCUGGAUUCCUCGUCACUCAGCAGGGCAUCUCUGAGAGAAAUGCC, the self-cleavage was 1.02.
As for UACGUAAGUGGUUUUCCCCUGAUAGUGCUAAGGGGGCCUGGAAGUUUGGACUGGGCAGAGCUCAACACAGCGUGGCAAAGUGGCUGUGGCUAGACUGCCUCUCUGGACUCCUCGUCACUCAGCAGGGCAUCUCUGAGAGAAAUGCC, the self-cleavage was found to be 1.57.
With UACGUAUGUGGUUUUCCCCUGAUAGUGCUAAGGGGGCCUGGAAGUUUGGACUGGGCAGAGCUCAACACAGCGUGGCAAAGUGGCUGUGGCUAGACUGCCUCUCUGGAUUCCUCGUCACUCAGCAGGGCAUCUCUGAGGGAAAUGCC the figure was 1.31; with UACGUAUGUGGUUUUCCCCUGAUAGUGCUAAGGGGGCCUGGAAGUUUGGACUGGGCAGAGCUCAACACAGCGUGGCAAAGUGGCUGUGGCUAGACUGCCUCUCUGGAUUCCUCGUCACUCAGCAGGGCAUCUCUGAGAGAGAUGCC, 1.62.
With UACGUAAGUGGUUUUCCCCUGAUAGUGCUAAGGGGGCCCGGAAGUUUGGACUGGGCAGAGCUCAACACAGCGUGGCAAAGUGGCUGUGGCUAGACUGCCUCUCUGGAUUCCUCGUCACUCAGCAGGGCAUCUCUGAGAGAAAUGCC the figure was 0.83; with UACGUAAGUGGUUUUCCCCUGAUAGUGCUAAGGGGGCCUGGAAGUUUGGACUGGGCAGAGCUCAACACAGCGUGGCAAAGUGGCUGUGGCUAGACUGCCUCUCCGGAUUCCUCGUCACUCAGCAGGGCAUCUCUGAGAGAAAUGCC, 1.15.
Consider UACGUAAGUGGUUUUCCCCUGAUAGUGCUAAGGGGGCCUGGAAGUUUGGACUGGGCAGAGCUCAACACAGCGUGGCAAAGUGGCUGUGGCUAGACUGCCUCUCAGGAUUCCUCGUCACUCAGCAGGGCAUCUCUGAGAGAAAUGCC, for which the self-cleavage is 1.11.
In the case of UACGUAAGUGGUUUUCCCCUGAUAGUGCUAAGGGGGCCUGGAAGUUUGGACUGGGCAGAGCUCAACACAGCGUGGCAAAGUGGCUGUGACUAGACUGCCUCUCUGGAUUCCUCGUCACUCAGCAGGGCAUCUCUGAGAGAAAUGCC, the self-cleavage came out at 0.02.
For UACGUAUGUGGUUUUCCCCUGAUAGUGCUAAGGGGGCCUGGAAGUUUGGACUGGGCAGAGCUCAACACAGCGUGGCAAGGUGGCUGUGGCUAGACUGCCUCUCUGGAUUCCUCGUCACUCAGCAGGGCAUCUCUGAGAGAAAUGCC, the self-cleavage turned out to be 0.87.
UACGUAAGUGGUUCUCCCCUGAUAGUGCUAAGGGGGCCUGGAAGUUUGGACUGGGCAGAGCUCAACACAGCGUGGCAAAGUGGCUGUGGCUAGACUGCCUCUCUGGAUUCCUCGUCACUCAGCAGGGCAUCUCUGAGAGAAAUGCC: the self-cleavage came out at 0.88.
The figure for UACGUAAGUGGUUUUCCCCUGAUAGUGCUAAGGGGGCCUGGAAGUUUGGACUGGGCAGAGCUCAACACAGCGAGGCAAAGUGGCUGUGGCUAGACUGCCUCUCUGGAUUCCUCGUCACUCAGCAGGGCAUCUCUGAGAGAAAUGCC is 1.31; for UACGUAUGUGGUUUUCCCCUGAUAGUGCUAAGGGGGCCUGGAAGUUUGGACUGGGCAGAGCUCAACACAGCGUGGCAAAGUGGCUGUGGCUAGGCUGCCUCUCUGGAUUCCUCGUCACUCAGCAGGGCAUCUCUGAGAGAAAUGCC it is 0.36; for UACGUAUGUGGUUUACCCCUGAUAGUGCUAAGGGGGCCUGGAAGUUUGGACUGGGCAGAGCUCAACACAGCGUGGCAAAGUGGCUGUGGCUAGACUGCCUCUCUGGAUUCCUCGUCACUCAGCAGGGCAUCUCUGAGAGAAAUGCC it is 0.97.
With UACGUAUGUGGUUUUCCCCUGAUAGUGCUAAGGGGGCCUGGAAGUUUGGACUGGGCAGAGCUCAACACAGCGUGGCUAAGUGGCUGUGGCUAGACUGCCUCUCUGGAUUCCUCGUCACUCAGCAGGGCAUCUCUGAGAGAAAUGCC, the self-cleavage was determined as 1.04.
For UACGUACGUGGUUUUCCCCUGAUAGUGCUAAGGGGGCCUGGAAGUUUGGACUGGGCAGAGCUCAACACAGCGUGGCAAAGUGGCAGUGGCUAGACUGCCUCUCUGGAUUCCUCGUCACUCAGCAGGGCAUCUCUGAGAGAAAUGCC, the self-cleavage amounted to 0.2.
On to UACGUAACUGGUUUUCCCCUGAUAGUGCUAAGGGGGCCUGGAAGUUUGGACUGGGCAGAGCUCAACACAGCGUGGCAAAGUGGCUGUGGCUAGACUGCCUCUCUGGAUUCCUCGUCACUCAGCAGGGCAUCUCUGAGAGAAAUGCC, for which the self-cleavage stood at 0.
UACGUAUGUGGUUUUCCCCUGAUAGUGCUAAGGGGGCCUGGAAGUUUGGACUGGGCAGAGCUCGACACAGCGUGGCAAAGUGGCUGUGGCUAGACUGCCUCUCUGGAUUCCUCGUCACUCAGCAGGGCAUCUCUGAGAGAAAUGCC: the self-cleavage worked out at 0.35.
UACGUAAGUGGUUUUCCCCUGAUAGUGCUAAGGGGGCCUGGAAGUAUGGACUGGGCAGAGCUCAACACAGCGUGGCAAAGUGGCUGUGGCUAGACUGCCUCUCUGGAUUCCUCGUCACUCAGCAGGGCAUCUCUGAGAGAAAUGCC: the self-cleavage stood at 1.23.
The figure for UACGUAUGUGGUUUUCCCCUGAUAGUGCUAAGGGGGCCUGGAAGUUUGGACUGGGCAGAGCUCAACACAGCGUGGCAAAGUGGCUGUGGCUAGACUGCCUCUCUGGAUUCCUCGUCACUCAGCAGGGCAUCUCUGAGAGUAAUGCC is 1.34; for UACGUAAGUGGUUUUCCCCUGAUAGUGCUAAGGGGGCCUGGAAGUUUGGACUGGGCAGAGCUCAACACAGCGUGGCAAAGUGGCUGUGGCUAGACUGCCUCUCUGGAUUCCUCGUCACUCGGCAGGGCAUCUCUGAGAGAAAUGCC it is 1.18.
For UACGUAUGUGGUUUUCCCCUGAUAGUGCUAAGGGGGCCUGGAAGUUUGGACUGGGCAGAGCUCAACACAGCGUGGCAAAGUGGCUGUGGCUAGACUGCCUCUCUGGAUUCCUCGUCACUCAGGAGGGCAUCUCUGAGAGAAAUGCC, the self-cleavage is 1.13.
As to UACGUAAGUGGUUUUCCCCUGAUAGUGCUAAGGGGGCCUGGAAGUUUGGACUGGGCAGAGCUCAACACAGCGUGGCAAAGUGGCCGUGGCUAGACUGCCUCUCUGGAUUCCUCGUCACUCAGCAGGGCAUCUCUGAGAGAAAUGCC, the self-cleavage was 0.11.
Turning to UACGUAAGUGGUUUUCCCCAGAUAGUGCUAAGGGGGCCUGGAAGUUUGGACUGGGCAGAGCUCAACACAGCGUGGCAAAGUGGCUGUGGCUAGACUGCCUCUCUGGAUUCCUCGUCACUCAGCAGGGCAUCUCUGAGAGAAAUGCC, the self-cleavage is 0.96.
Turning to UACGUAAGUGGUUUUCCCCUGAUAGUGCUAAGGGGGCCUGGAAGUUUGGACUGGGCAGAGCUCAACACAGCGUGGCAAAGUGGCUGUGGCUAGACUGCCUCUCUGGAUUCCUCGUCACUCAGCAGGGCGUCUCUGAGAGAAAUGCC, the self-cleavage came out at 1.85.
In the case of UACGUAAGUGGUUUUCCCCUGAUAGUGCUAAGGGGGCCUGGAAGUUUGGACUGGGCAGAGCUCAACACAGCGUGGCAAAGUGGCUGUGGCUAGACUGCCUCUCUGGAUUCCUCGUCACUCAGCAGGGCCUCUCUGAGAGAAAUGCC, the self-cleavage stood at 1.07.
The figure for UACGUACGUGGUUUUCCCCUGAUAGUGCUAAGGGGGCCUGGAAGUUUGGACUGGGCAGAGCUCAACACAGCGUGGCAAAGUGGCUGUGGCUAGACUGCCUCUCUGGAUUCCUCGUCACUCAGCAGGGCAUCUCUGAGAGAACUGCC is 1.1; for UACGUAAGUGGUUUUCCCCUGAUAGUGCUAAGGGGGCCUGGAAGUUUGGACUGGGCAGAGCUCAACACAGCGUGGCAAAGUGGCUGUGGCUAGACUGCCUCUCUGGAUUCCUCGUCACUCAGCAGGACAUCUCUGAGAGAAAUGCC it is 1.3.
The figure for UACGUAAGUGGUUUUCCCCUGAUAGUGCUAAGGGGGCCUGGAAGUUUGGACUGGGCAGAGCUCAACACAGCGUGGCAAAGUGGCUGUGGCUAGACUGCCUCUCUGGAUUCCUCGUCACUCAGCAGGGCAUCCCUGAGAGAAAUGCC is 1.2; for UACGUAUGUGGUUUUCCCCUGAUAGUGCUAAGGGGGCCAGGAAGUUUGGACUGGGCAGAGCUCAACACAGCGUGGCAAAGUGGCUGUGGCUAGACUGCCUCUCUGGAUUCCUCGUCACUCAGCAGGGCAUCUCUGAGAGAAAUGCC it is 1.67; for UACGUACGUGGUUUUCCCCUGAUAGUGCUAAGGGGGCCUGGAAGUUUGGACUGGGCAGAGCUCAACACAGCGUGGCAAAGUGGCUGUGGCCAGACUGCCUCUCUGGAUUCCUCGUCACUCAGCAGGGCAUCUCUGAGAGAAAUGCC it is 0.
For UACGUAAGUGGUUUUCCCCUGAUAGUGCUAAGGGGGCCUGGAAGUUUGGACUGGGCAGAGCUCAACACAGCGUGGCAAAGUGGCUGUGGCUAGACUGCCUCUCUGGAUACCUCGUCACUCAGCAGGGCAUCUCUGAGAGAAAUGCC, the self-cleavage came out at 1.49.
As for UACGUAAGUGGUUUUCCCCUGAUAGUGCUAAGGGGGCCUGGAAGUUUGGACUGGGCAGAGCUCAACACAGCGUGGCAAAGUGGCUGCGGCUAGACUGCCUCUCUGGAUUCCUCGUCACUCAGCAGGGCAUCUCUGAGAGAAAUGCC, the self-cleavage came out at 0.07.
With UACGUAAGUGGUUUUCCCCUGAUAGUGCUAAGGGGGCCUGGAAGUUUGGACUGGGCAGAGCUCAACACAGCGUGGCAAAGUGGCUGAGGCUAGACUGCCUCUCUGGAUUCCUCGUCACUCAGCAGGGCAUCUCUGAGAGAAAUGCC the figure was 0.04; with UACGUAUGUGGUUUUCCCCUGAUAGUGCUAAGGGGGCCUGGAAGUUUGGACUGGGCAGAGCUCAACACAGCGUGGCAGAGUGGCUGUGGCUAGACUGCCUCUCUGGAUUCCUCGUCACUCAGCAGGGCAUCUCUGAGAGAAAUGCC, 0.88; with UACGUAAGUGGUUUUCCCCUGAUAGUGCUAAGGGGGCCUGGAAGUUUGGACUGGGCAGAGCUCAACACAGCGUGGCAAAGUGGCUGUGGCUAGACUGCCUCUCUGGAUUCCUCGUCACUCAGCAGGGCAUCUCCGAGAGAAAUGCC, 1.17.
On to UACGUAUGUGGUUCUCCCCUGAUAGUGCUAAGGGGGCCUGGAAGUUUGGACUGGGCAGAGCUCAACACAGCGUGGCAAAGUGGCUGUGGCUAGACUGCCUCUCUGGAUUCCUCGUCACUCAGCAGGGCAUCUCUGAGAGAAAUGCC, for which the self-cleavage stood at 1.39.
For UACGUAAGUGGUUUUCCCCUGAUAGUGCUAAGGGGGCCUGGAAGUUUGGACUGGGCAGAGCUCAACACAGCGUGGCAAAGUGGCUGUGGCUAGACUACCUCUCUGGAUUCCUCGUCACUCAGCAGGGCAUCUCUGAGAGAAAUGCC, the self-cleavage was determined as 0.1.
As to UACGUAAGUGGUUUUCCCCUGAUAGUGCUAAGGGGGCCUGGAAGUUUGGACUGGGCAGAGCUCAACACAGCGUGGCAAAGUGGCUGUGGCUAGACUGCCUCUCUGGAUUCCCCGUCACUCAGCAGGGCAUCUCUGAGAGAAAUGCC, the self-cleavage worked out at 1.22.
On to UACGUAUGUGGUUUUCCCCUGAUAGUGCUAAGGGGGCCUGGAAGUUUGGACUGGGCAGAGCUCAACACGGCGUGGCAAAGUGGCUGUGGCUAGACUGCCUCUCUGGAUUCCUCGUCACUCAGCAGGGCAUCUCUGAGAGAAAUGCC, for which the self-cleavage turned out to be 0.94.
